Measured values reported in patent US8357523B2, “Beta-glucosidase variant enzymes and related polynucleotides” (Codexis, Inc., priority 2009, dated 2013).

Assay: High throughput cellobiose assay: fold improvement in cellobiase activity of CelA variants over a control enzyme (Tables 2A-2D, 3, 5, 6, 7)
Type: biochemical
Settings: 3.3 g/l cellobiose, 55° C. and pH 6.0

Row | Molecule | Fold improvement over Control Variant No. 5 from Table 2A
1 | 104 (protein) STAIAQEGAAPAAILHPEKWPRPATQRLIDPAVEKRVDALLKQLSVEEKVGQVIQGDIGTITPEDLRKYPLGSILAGGNSGPNGDDRAPPKEWLDLADAFYRVSLEKRPGHTPIPVLFGIDAVHGHGNIGSATIFPHNIALGATRDPELLRRIGEVTAVEMAATGIDWTFAPALSVVRDDRWGRTYEGFSEDPEIVAAYSAAIVEGVQGKFGSKDFMAPGRIVASAKHFLADGGTDQGRDQGDARISEDELIRIHNAGYPPAIDAGVLTVMASFSSWQGIKHHGHKQLLTDVLKGQMGFNGFIVGDWNAHDQVPGCTKFNCPTSLIAGLDMYMAADSWKQLYENTLAQVKDGTIPMARLDDAVRRILRVKVLAGLFEKPAPKDRPGLPGLETLGSPEHRAVGREAVRKSLVLLKNDKGTLPLSPKARVLVAGDGADNIGKQSGGWTISWQGTGNRNDEFPGATSILGGIRDAVADAGGSVEFDVAGQYKTKPDVAIVVFGEEPYAEFQGDVETLEYQPDQKQDLALLKKLKDQGIPVVAVFLSGRPMWVNPELNASDAFVAAWLPGTEGGGVADVLFTDKAGKVQHDFAGKLSYSWPRTAAQTTVNRGDADYNPLFAYGYGLTYKDKSKVGTLPEESGVPAEARQNAGIY | ++ (++ = 1.1 to 6 fold improvement over control Variant No. 2)
2 | 105 (protein) STAIAQEGAAPAAILHPEKWPRPATQRLIDPAVEKRVDALLKQLSVEEKVGQVIQGDIGTITPEDLRKYPLGSILAGGNSGPNGDDRAPPKEWLDLADAFYRVSLEKRPGHTPIPVLFGIDAVHGHGNIGSATIFPHNIALGATRDPELLRRIGEVTAVEMAATGIDWTFAPALSVVRDDRWGRTYEGFSEDPEIVAAYSAAIVEGVQGKFGSKDFMAPGRIVASAKHFLADGGTDQGRDQGDARISEDELIRIHNAGYPPAIDAGVLTVMASFSSWQGIKHHGHKQLLTDVLKGQMGFNGFIVGDWNAHDQVPGCTKFNCPTSLIAGLDMYMAADSWKQLYENTLAQVKDGTIPMARLDDAVRRILRVKVLAGLFEKPAPKDRPGLPGLETLGSPEHRAVGREAVRKSLVLLKNDKGTLPLSPKARVLVAGDGADNIGKQSGGWTISWQGTGNRNDEFPGATSILGGIRDAVADAGGSVEFDVAGQYKTKPDVAIVVFGEEPYAEFQGDVETLEYQPDQKQDLALLKKLKDQGIPVVAVFLSGRPMWVNPELNASDAFVAAWLPGTEGGGVADVLFTDKAGKVQHDFAGKLSYSWPRTAAQTTVNRGDADYNPLFAYGYGLTYKDKSKVGTLP | ++ (++ = 1.1 to 6 fold improvement over control Variant No. 2)
3 | 106 (protein) STAIAQEGAAPAAILHPEKWPRPATQRLIDPAVEKRVDALLKQLSVEEKVGQVIQGDIGTITPEDLRKYPLGSILAGGNSGPNGDDRAPPKEWLDLADAFYRVSLEKRPGHTPIPVLFGIDAVHGHGNIGSATIFPHNIALGATRDPELLRRIGEVTAVEMAATGIDWTFAPALSVVRDDRWGRTYEGFSEDPEIVAAYSAAIVEGVQGKFGSKDFMAPGRIVASAKHFLADGGTDQGRDQGDARISEDELIRIHNAGYPPAIDAGVLTVMASFSSWQGIKHHGHKQLLTDVLKGQMGFNGFIVGDWNAHDQVPGCTKFNCPTSLIAGLDMYMAADSWKQLYENTLAQVKDGTIPMARLDDAVRRILRVKVLAGLFEKPAPKDRPGLPGLETLGSPEHRAVGREAVRKSLVLLKNDKGTLPLSPKARVLVAGDGADNIGKQSGGWTISWQGTGNRNDEFPGATSILGGIRDAVADAGGSVEFDVAGQYKTKPDVAIVVFGEEPYAEFQGDVETLEYQPDQKQDLALLKKLKDQGIPVVAVFLSGRPMWVNPELNASDAFVAAWLPGTEGGGVADVLFTDKAGKVQHDFAGKLSYSWPRTAAQTTVNRGDADYNPLFAYGYGLTYKDKSKVGTLPEE | ++ (++ = 1.1 to 6 fold improvement over control Variant No. 2)
4 | 107 (protein) STAIAQEGAAPAAILHPEKWPRPATQRLIDPAVEKRVDALLKQLSVEEKVGQVIQGDIGTITPEDLRKYPLGSILAGGNSGPNGDDRAPPKEWLDLADAFYRVSLEKRPGHTPIPVLFGIDAVHGHGNIGSATIFPHNIALGATRDPELLRRIGEVTAVEMAATGIDWTFAPALSVVRDDRWGRTYEGFSEDPEIVAAYSAAIVEGVQGKFGSKDFMAPGRIVASAKHFLADGGTDQGRDQGDARISEDELIRIHNAGYPPAIDAGVLTVMASFSSWQGIKHHGHKQLLTDVLKGQMGFNGFIVGDWNAHDQVPGCTKFNCPTSLIAGLDMYMAADSWKQLYENTLAQVKDGTIPMARLDDAVRRILRVKVLAGLFEKPAPKDRPGLPGLETLGSPEHRAVGREAVRKSLVLLKNDKGTLPLSPKARVLVAGDGADNIGKQSGGWTISWQGTGNRNDEFPGATSILGGIRDAVADAGGSVEFDVAGQYKTKPDVAIVVFGEEPYAEFQGDVETLEYQPDQKQDLALLKKLKDQGIPVVAVFLSGRPMWVNPELNASDAFVAAWLPGTEGGGVADVLFTDKAGKVQHDFAGKLSYSWPRTAAQTTVNRGDADYNPLFAYGYGLTYKDKSKVGTLPEESGVPAEAR | ++ (++ = 1.1 to 6 fold improvement over control Variant No. 2)
5 | 108 (protein) STAIAQEGAAPAAILHPEKWPRPATQRLIDPAVEKRVDALLKQLSVEEKVGQVIQGDIGTITPEDLRKYPLGSILAGGNSGPNGDDRAPPKEWLDLADAFYRVSLEKRPGHTPIPVLFGIDAVHGHGNIGSATIFPHNIALGATRDPELLRRIGEVTAVEMAATGIDWTFAPALSVVRDDRWGRTYEGFSEDPEIVAAYSAAIVEGVQGKFGSKDFMAPGRIVASAKHFLADGGTDQGRDQGDARISEDELIRIHNAGYPPAIDAGVLTVMASFSSWQGIKHHGHKQLLTDVLKGQMGFNGFIVGDWNAHDQVPGCTKFNCPTSLIAGLDMYMAADSWKQLYENTLAQVKDGTIPMARLDDAVRRILRVKVLAGLFEKPAPKDRPGLPGLETLGSPEHRAVGREAVRKSLVLLKNDKGTLPLSPKARVLVAGDGADNIGKQSGGWTISWQGTGNRNDEFPGATSILGGIRDAVADAGGSVEFDVAGQYKTKPDVAIVVFGEEPYAEFQGDVETLEYQPDQKQDLALLKKLKDQGIPVVAVFLSGRPMWVNPELNASDAFVAAWLPGTEGGGVADVLFTDKAGKVQHDFAGKLSYSWPRTAAQTTVNRGDADYNPLFAYGYGLTYKDKSKVGTLPEESGVP | ++ (++ = 1.1 to 6 fold improvement over control Variant No. 2)
6 | 109 (protein) STAIAQEGAAPAAILHPEKWPRPATQRLIDPAVEKRVDALLKQLSVEEKVGQVIQGDIGTITPEDLRKYPLGSILAGGNSGPNGDDRAPPKEWLDLADAFYRVSLEKRPGHTPIPVLFGIDAVHGHGNIGSATIFPHNIALGATRDPELLRRIGEVTAVEMAATGIDWTFAPALSVVRDDRWGRTYEGFSEDPEIVAAYSAAIVEGVQGKFGSKDFMAPGRIVASAKHFLADGGTDQGRDQGDARISEDELIRIHNAGYPPAIDAGVLTVMASFSSWQGIKHHGHKQLLTDVLKGQMGFNGFIVGDWNAHDQVPGCTKFNCPTSLIAGLDMYMAADSWKQLYENTLAQVKDGTIPMARLDDAVRRILRVKVLAGLFEKPAPKDRPGLPGLETLGSPEHRAVGREAVRKSLVLLKNDKGTLPLSPKARVLVAGDGADNIGKQSGGWTISWQGTGNRNDEFPGATSILGGIRDAVADAGGSVEFDVAGQYKTKPDVAIVVFGEEPYAEFQGDVETLEYQPDQKQDLALLKKLKDQGIPVVAVFLSGRPMWVNPELNASDAFVAAWLPGTEGGGVADVLFTDKAGKVQHDFAGKLSYSWPRTAAQTTVNRGDADYNPLFAYGYGLTYKDKSKVGTLPEESGVPAEARQNAGIYFRAGALRLPGRF | ++ (++ = 1.1 to 6 fold improvement over control Variant No. 2)
7 | 110 (protein) STAIAQEGAAPAAILHPEKWPRPATQRLIDPAVEKRVDALLKQLSVEEKVGQVIQGDIGTITPEDLRKYPLGSILAGGNSGPNGDDRAPPKEWLDLADAFYRVSLEKRPGHTPIPVLFGIDAVHGHGNIGSATIFPHNIALGATRDPELLRRIGEVTAVEMAATGIDWTFAPALSVVRDDRWGRTYEGFSEDPEIVAAYSAAIVEGVQGKFGSKDFMAPGRIVASAKHFLADGGTDQGRDQGDARISEDELIRIHNAGYPPAIDAGVLTVMASFSSWQGIKHHGHKQLLTDVLKGQMGFNGFIVGDWNAHDQVPGCTKFNCPTSLIAGLDMYMAADSWKQLYENTLAQVKDGTIPMARLDDAVRRILRVKVLAGLFEKPAPKDRPGLPGLETLGSPEHRAVGREAVRKSLVLLKNDKGTLPLSPKARVLVAGDGADNIGKQSGGWTISWQGTGNRNDEFPGATSILGGIRDAVADAGGSVEFDVAGQYKTKPDVAIVVFGEEPYAEFQGDVETLEYQPDQKQDLALLKKLKDQGIPVVAVFLSGRPMWVNPELNASDAFVAAWLPGTEGGGVADVLFTDKAGKVQHDFAGKLSYSWPRTAAQTTVNRGDADYNPLFAYGYGLTYKDKSKVGTLPEESGVPAE | ++ (++ = 1.1 to 6 fold improvement over control Variant No. 2)
8 | 111 (protein) STAIAQEGAAPAAILHPEKWPRPATQRLIDPAVEKRVDALLKQLSVEEKVGQVIQGDIGTITPEDLRKYPLGSILAGGNSGPNGDDRAPPKEWLDLADAFYRVSLEKRPGHTPIPVLFGIDAVHGHGNIGSATIFPHNIALGATRDPELLRRIGEVTAVEMAATGIDWTFAPALSVVRDDRWGRTYEGFSEDPEIVAAYSAAIVEGVQGKFGSKDFMAPGRIVASAKHFLADGGTDQGRDQGDARISEDELIRIHNAGYPPAIDAGVLTVMASFSSWQGIKHHGHKQLLTDVLKGQMGFNGFIVGDWNAHDQVPGCTKFNCPTSLIAGLDMYMAADSWKQLYENTLAQVKDGTIPMARLDDAVRRILRVKVLAGLFEKPAPKDRPGLPGLETLGSPEHRAVGREAVRKSLVLLKNDKGTLPLSPKARVLVAGDGADNIGKQSGGWTISWQGTGNRNDEFPGATSILGGIRDAVADAGGSVEFDVAGQYKTKPDVAIVVFGEEPYAEFQGDVETLEYQPDQKQDLALLKKLKDQGIPVVAVFLSGRPMWVNPELNASDAFVAAWLPGTEGGGVADVLFTDKAGKVQHDFAGKLSYSWPRTAAQTTVNRGDADYNPLFAYGYGLTYKDKSKVGTLPEESGVPAEARQNAGIYFR | ++ (++ = 1.1 to 6 fold improvement over control Variant No. 2)
